What was measured:
[1] = target: IRF5 (222-467) S421D (human); assay: ITC
[2] = target: IRF5 (222-467) S425D (human); assay: ITC
[3] = target: IRF5 (222-467) S427D (human); assay: ITC
[4] = target: IRF5 (222-467) S430D (human); assay: ITC
[5] = target: IRF5 (222-467) S436D (human); assay: ITC
[6] = target: IRF5 (222-467) S457D (human); assay: ITC
[7] = target: IRF5 (residues 222-467) (human); assay: ITC
[8] = target: IRF5 (222-467) S430D (human); assay: AUC

CBP (residues 2067-2112) (from UniProt Q92793 2067-2112) (domain or fragment)
Kd [1]: 2280 nM
dH [1]: -6.4 kcal/mol
stoichiometry N [1]: 1.03
Kd [2]: 710 nM
dH [2]: -13.3 kcal/mol
stoichiometry N [2]: 1.04
Kd [3]: 960 nM
dH [3]: -12.9 kcal/mol
stoichiometry N [3]: 0.98
Kd [4]: 560 nM
dH [4]: -15.2 kcal/mol
stoichiometry N [4]: 1.02
Kd [5]: 670 nM
dH [5]: -6.8 kcal/mol
stoichiometry N [5]: 1.07
Kd [6]: 2410 nM
dH [6]: -10.3 kcal/mol
stoichiometry N [6]: 1.08
Kd [7]: 1640 nM
dH [7]: -14.4 kcal/mol
stoichiometry N [7]: 1.05

IRF5 (222-467) S430D (domain or fragment)
stoichiometry N [8]: 2
